Results taken from US11419945B2, “Antigen binding proteins” (Glaxo Group Limited, priority 2011, dated 2022).

Experiments:
[1] = biological target: T1, Human in house BCMA (Homo sapiens, UniProt Q02223); assay: ProteOn analysis of CA8 chimeric and humanised constructs, human in house BCMA; format: binding; conditions: ProteOn, 25° C.; for ka: in M-1s-1 (unit assumed); for kd: in s-1 (unit assumed)
T1 construct: CD33 signal peptide (N); TEV site (internal); Fc (C); made in house
Method: (§1) The initial screen of CA8 chimeric and humanised variants was carried out on the ProteOn XPR36 (Biorad). The method was as follows; Protein A was immobilised on a GLC chip (Biorad, Cat No: 176-5011) by primary amine coupling, CA8 variants were then captured on this surface and recombinant human BCMA (in house or commercial US Biological, B0410) materials (run 2 only)) passed over at 256, 64, 16, 4, 1 nM with a 0 nM injection (i.e. buffer alone) used to double reference the binding curves, the buffer used is the HBS-EP buffer. 50 mM NaOH was used to regenerate the capture surface. The data was fitted to the 1:1 model using the analysis software inherent to the ProteOn XPR36. Run 1 corresponds to the first screen of humanised CA8 variants (JO to J5 series) and run 2 to the second screen of humanised CA8 variants (J5 to J9 series). Both runs were carried out at 25° C.

[2] = biological target: T2, Human commercial BCMA (Homo sapiens, UniProt Q02223); assay: ProteOn analysis of CA8 chimeric and humanised constructs, commercial human BCMA; format: binding; conditions: Run 2, commercial human BCMA, 25° C.
T2 construct: purchased US Biological B0410
T2 sequence (Q02223 1-184): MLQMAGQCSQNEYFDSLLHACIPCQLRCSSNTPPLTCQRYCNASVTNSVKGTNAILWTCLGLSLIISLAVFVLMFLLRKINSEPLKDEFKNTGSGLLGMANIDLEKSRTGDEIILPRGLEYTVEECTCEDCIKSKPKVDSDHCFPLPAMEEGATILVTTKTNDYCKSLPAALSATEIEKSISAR
Method: as §1

[3] = system: cyno BCMA-Fc; assay: ELISA binding to recombinant cyno BCMA-Fc; conditions: 5 ug/ml to 0.1 ug/ml antibody
Method: Chimeric CA8 antibodies were tested for binding to human BCMA and cyno BCMA expressed as Fc fusions. Human BCMA-Fc and cyno BCMA-Fc were coated to ELISA plates and the plates were blocked using BSA to reduce non specific binding. CA8 chimeric antibodies were added in a concentration range from 5 ug/ml to 0.1 ug/ml to the human and cyno BCMA coated ELISA plates. Any bound human chimeric CA8 antibody was detected using anti-human IgG HRP conjugated secondary antibody as appropriate. HRP substrate (TMB) was added to develop the ELISA.

[4] = biological target: T2, Human commercial BCMA; assay: BIAcore analysis J7 to J9 series, human commercial BCMA; format: binding; conditions: 37° C.
Method: Protein A was immobilised on a CMS chip (GE Healthcare, Cat No: BR-1005-30) by primary amine coupling and this surface was then used to capture the antibody molecules. Recombinant human BCMA (US Biological, B0410) was used as analyte at 256 nM, 64 nM, 16 nM, 4 nM and 1 nM. Regeneration of the capture surface was carried out using 50 mM NaOH. All binding curves were double referenced with a buffer injection (i.e. 0 nM) and the data was fitted to the using the 1:1 model inherent to T100 evaluation software. The run was carried out at 37° C., using HBS-EP as the running buffer.

[5] = system: human multiple myeloma cell lines NCI-H929, U266-B1, JJN3 and OPM2; assay: ADC activity of chimeric CA8 ADCs, 4 multiple myeloma cell lines (Cell titre Glo, 96 hours); format: cell-based; conditions: 1 ug/ml to 5 ng/ml, all 4 cell lines
Method: FIG. 11: Viability assay dose response curves—Figure showing dose response curves in a cell viability assay for chimeric CA8 antibody, chimeric CA8-vcMMAE and chimeric CA8-mcMMAF antibody-drug conjugates in human multiple myeloma cell lines NCI-H929, U266-B1, JJN3 and OPM2. Antibody was added to the cells and the number of viable cells after 96 hours measured using CelltiterGlo. Data points represent the mean of triplicate CellTiterGlo measurements. Error bars represent standard error.
Multiple Myeloma cell lines were treated with chimeric CA8 antibody-drug conjugates to determine the ADC concentrations required for growth inhibition and death.
The antibody drug conjugates tested were added to wells containing multiple myeloma cells at concentrations ranging from 1 ug/ml to 5 ng/ml. The plates were incubated at 37° C. for 96 hours at which point viable cells were quantitated using Cell titre Glo.

[6] = system: cyno BCMA HEK293; assay: FMAT binding assay, cyno BCMA expressing HEK293 cells; conditions: range of antibody concentrations
Method: Cryopreserved transfected human, cyno BCMA and mock transfected HEK293 cells were recovered from LN2 storage. Assay wells were prepared with human chimeric CA8 antibody, at a range of different concentrations, mixed with human BCMA HEK293, cyno BCMA HEK293 and mock transfected cells respectively. Anti-human IgG FMAT Blue secondary conjugate was added for detection of human chimeric CA8. The assay plates were left for a minimum of 90 minutes before the result was read on the ABI8200 (FMAT) plate reader.

T1 sequence (Q02223 with tags, fused parts or gaps limits assumed): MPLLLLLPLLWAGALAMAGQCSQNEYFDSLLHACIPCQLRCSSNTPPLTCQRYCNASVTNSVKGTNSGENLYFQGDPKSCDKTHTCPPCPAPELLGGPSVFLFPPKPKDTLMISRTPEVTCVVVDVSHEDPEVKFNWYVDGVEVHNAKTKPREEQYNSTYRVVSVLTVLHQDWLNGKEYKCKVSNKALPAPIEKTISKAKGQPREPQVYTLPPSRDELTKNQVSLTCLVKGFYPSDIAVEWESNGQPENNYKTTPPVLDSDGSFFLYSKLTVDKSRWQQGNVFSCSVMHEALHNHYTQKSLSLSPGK
Sequence of cyno BCMA-Fc (as listed by the source): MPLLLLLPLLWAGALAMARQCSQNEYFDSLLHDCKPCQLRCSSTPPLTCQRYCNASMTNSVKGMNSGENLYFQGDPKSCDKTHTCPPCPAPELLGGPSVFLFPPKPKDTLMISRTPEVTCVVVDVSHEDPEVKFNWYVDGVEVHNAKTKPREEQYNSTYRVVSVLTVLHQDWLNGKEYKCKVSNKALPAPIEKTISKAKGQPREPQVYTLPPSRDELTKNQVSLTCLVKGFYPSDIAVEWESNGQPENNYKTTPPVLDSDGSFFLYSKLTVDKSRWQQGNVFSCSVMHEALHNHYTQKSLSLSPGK
Sequence of cyno BCMA HEK293 (as listed by the source): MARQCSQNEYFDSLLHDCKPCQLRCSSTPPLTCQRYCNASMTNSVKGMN

B1: CA8 Chimera: chimeric anti-BCMA antibody: murine CA8 VH (SEQ ID NO:7) and VL (SEQ ID NO:9) on human γ1 and kappa constant regions (antibody, V domains shown)
VH: EVQLQQSGAVLARPGASVKMSCKGSGYTFTNYWMHWVKQRPGQGLEWIGATYRGHSDTYYNQKFKGKAKLTAVTSTSTAYMELSSLTNEDSAVYYCTRGAIYNGYDVLDNWGQGTLVTVSS
VL: DIQLTQTTSSLSASLGDRVTISCSASQDISNYLNWYQQKPDGTVELVIYYTSNLHSGVPSRFSGSGSGTDYSLTIGYLEPEDVATYYCQQYRKLPWTFGGGSKLEIKR
modifications: human IgG1 and kappa constant regions; mus musculus
Q: What does the source list for B1?
A: ka ([1]; Run 1, Human in house BCMA): 2.41E+05; kd ([1]; Run 1, Human in house BCMA): 1.25E−04; ka ([1]; Run 2, Human in house BCMA): 2.51E+05; kd ([1]; Run 2, Human in house BCMA): 1.03E−04; ka ([2]; in M-1s-1 (unit assumed)): 7.05E+05; kd ([2]; in s-1 (unit assumed)): 9.79E−05; binding to recombinant cyno BCMA (ELISA) ([3]; listed as Chimeric CA8): binds to recombinant human and cyno BCMA; binding to recombinant cyno BCMA (ELISA) ([3]; listed as human chimeric CA8 antibodies): bind to human and cyno BCMA proteins equally; ka ([4]; in M-1s-1 (unit assumed)): 3.27E+07; kd ([4]; in s-1 (unit assumed)): 1.18E−03; growth inhibitory activity [5]: no significant growth inhibitory activity; binding to cyno BCMA expressed on HEK293 cells [6]: binds well
